Where “and” joins values, the source holds several entries; their conditions need not be identical. Identical values can stand only once. Where no end group is shown, it is not given here.
Tests used:
[1] = Turbidity decrease at 325 nm on complex formation with DMPC vesicles (lipid binding); conditions: from turbidity decrease with DMPC vesicles, 15-25° C.
Procedure: FIG. 1 represents the turbidity decrease (on the y-axis, expressed as E/Eo, with E being the turbidity measured at different temperature points and Eo being the turbidity measured at 15° C.) at 325 nm upon the formation of complexes with DMPC vesicles as a function of the temperature (°C.), (x-axis) and on which:
The formation of small discoidal particles between DMPC vesicles and the peptides was monitored by measuring the turbidity decrease at 325 nm as a function of temperature. […] The turbidity decrease initiated by the peptide-lipid association started already at 17° C., below the DMPC transition temperature and stabilized around 23° C. The turbidity decrease enables to determine the binding affinity of lipids to the peptides of the invention. M 1 has a strong lipid binding capacity while 18A and M4 have quite similar lipid binding affinity. The lipid binding of M3 is low compared with the other peptides.

[2] = Trp fluorescence emission of peptides and complexes; type: physicochemical; conditions: for Trp maximal emission wavelength, free: free peptide or protein; for Trp maximal emission wavelength upon phospholipid binding: in the phospholipid complex
Procedure: The measurement of the Trp fluorescence emission in the peptides and in the complexes was used to monitor complex formation. The fluorescence measurements were performed on an Aminco SPF-500 spectrofluorimeter equipped with a special adapter (Aminco-J4-9501) for the fluorescence polarisation measurements. The fluorescence polarization of the lipid-peptide complexes labelled with diphenyl hexatriene (DPH) (molar ratio of 500:1 lipid:DPH) was measured as a function of the temperature to detect changes in the fluidity of the phospholipid acyl chains due to lipid-peptide association. The excitation wavelength was set at 365 nm and emission was detected at 427 nm. Temperature scans between 15° and 40° C. were performed with a circulating water bath (Julabo) at a rate of 0.6° C./min.

[3] = Composition and gel chromatography of the isolated phospholipid-protein complexes; type: physicochemical; conditions: for Composition DPPC/Protein w/w: isolated complex with DPPC, maximum of elution peak
Procedure: Complexes were obtained by incubation of the peptides with dimyristoylphosphatidylcholine (DMPC, Sigma, St Louis, Mo.) vesicles at a DMPC/peptide, w/w ratio of 3/1 at 25° C. for 16 h. Complexes with dipalmitoylphosphatidylcholine (DPPC) were generated by the cholate dialysis procedure (Vanloo et al., 1991). All complexes were isolated by gel chromatography (FIG. 4) on a Superose PG column in a 0.01M Tris-HCl buffer, pH 8.0, 0.15M NaCl, 1 mM NaN3, 0.1 g/L EDTA. The column was first saturated with the phospholipid to avoid dissociation of the lipid-peptide complexes. The complexes were detected by continuous monitoring of the optical density at 280 nm and by measurement of the Trp emission of the fractions on a Jasco SP500 spectrofluorimeter. The composition and size of the complexes, were determined on the two fractions with maximal UV absorption in the elution peak of the complexes. The composition was determined by quantitation of the phospholipids using an enzymatic assay (Biomerieux, France), and of the peptide by an HPLC phenylalanine assay on a C18 reversed-phase column, after hydrolysis (Vanloo et al., 1991).

[4] = Percentage of alpha-helix structure by circular dichroism; type: physicochemical; conditions: for percentage of alpha-helix structure, peptide, CD: free peptide; for percentage of alpha-helix structure, DMPC/peptide, CD: phospholipid-peptide (DMPC) complex
Procedure: Table 1: corresponds to the percentage of alpha-helix structure in the free peptide and in the phospholipid-peptide (DMPC) complexes as determined by infrared spectroscopy (IR) and circular dichroism (CD).
Circular dichroism spectra of the peptides and their complexes with lipids were measured on a Jasco 600 spectropolarimeter at 23° C. (Brasscur et at., 1991). Measurements were carried out at a protein concentration of 0.1 mg/ml in a 0.01M sodium phosphate buffer pH 7.4. Nine spectra were collected and averaged for each sample. The secondary structure was estimated according to the generalized inverse method of Compton and Johnson (Compton et at., 1986).

[5] = GdmCl denaturation followed by Trp maximal emission wavelength; type: physicochemical; conditions: phospholipid (DMPC) complex
Procedure: The stability of the DMPC-peptide complexes, was compared by following the maximal emission wavelength of the Trp residues after exposure to increasing quantities of GdmCl. For these experiments aliquots of a 8M GdmCl solution were added to the complex in the Tris-HCl buffer described above (see FIG. 3).

lipid binding capacity / affinity [1] | Substance | Trp maximal emission wavelength, free [2] | Trp maximal emission wavelength upon phospholipid binding [2] [nm] | Composition DPPC/Protein w/w [3] | percentage of alpha-helix structure, peptide, CD [4] [%] | percentage of alpha-helix structure, DMPC/peptide, CD [4] [%] | midpoint of the GdmCl denaturation, phospholipid complex [5] | complex size on Superose PG column ([3]; DPPC complexes, cholate dialysis)
strong | EWLKAFYKKVLEKLKELF [M1] | 341 nm | 335 | 3/1 | 20 | 46 | 4 M | 
 | EWLKAEYEKVLEKLKELF [M2] | 353 nm | 342 | 2/1 | 30 | 46 | 3 M | 
quite similar | EWLEAFYKKVLEKLKELF [M4] |  |  | 3/1 | 50 | 65 | 2.5 M | 
 | apo AI: native plasma apo AI purified from human plasma; major apoprotein constituent of HDL | 333 nm and 338 nm | 329 | 2/1 | 29 | 47 | 2.5 M | 
low | EWLKAEYEKVEEKLKELF [M3] |  |  | 4/1 |  |  | immediately | much larger
